Data reported in patent publication US20220204581A1, “MONOMERIC PEPTIDE MULTI-AGONIST […] THE GLP1 RECEPTOR AND NPY RECEPTORS” (SYRACUSE UNIVERSITY, published 2022).
Like-named read-outs stand apart in the source and are kept apart here. Where no end group is shown, it is not given here. The star is where a group is joined. azido = [N-]=[N+]=N*

T1: human NPY2-R (human, UniProt P49146)
T1 sequence: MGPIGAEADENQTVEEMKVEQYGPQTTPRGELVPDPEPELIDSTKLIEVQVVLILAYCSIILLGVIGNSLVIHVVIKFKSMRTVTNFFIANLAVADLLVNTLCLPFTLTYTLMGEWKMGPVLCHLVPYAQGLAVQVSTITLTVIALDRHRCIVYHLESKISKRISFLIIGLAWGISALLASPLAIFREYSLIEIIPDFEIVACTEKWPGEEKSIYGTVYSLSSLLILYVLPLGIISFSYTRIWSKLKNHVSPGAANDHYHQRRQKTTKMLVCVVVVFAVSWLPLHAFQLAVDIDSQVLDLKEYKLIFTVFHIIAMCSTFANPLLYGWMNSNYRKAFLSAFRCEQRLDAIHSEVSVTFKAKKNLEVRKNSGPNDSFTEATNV


How the values were obtained:
[1] = molecular target: T2, human NPY1-R (human, UniProt P25929)
[2] = molecular target: T2, human NPY1-R; remark: listed apart in the source
[3] = molecular target: T3, human GLP-1R (human, UniProt P43220); assay: cell-based or functional assay
[4] = molecular target: T2, human NPY1-R; assay: cell-based or functional assay
[5] = molecular target: T1, human NPY2-R; assay: cell-based or functional assay
[6] = molecular target: T3, human GLP-1R; assay: cell-based or functional assay; remark: listed apart in the source
[7] = molecular target: T2, human NPY1-R; assay: cell-based or functional assay; remark: listed apart in the source

Molecule | EC50 (agonism of the Y1-R) [1] | EC50 Y1R [2] | EC50 GLP1R [3] | EC50 Y1R [4] | EC50 Y2R [5] | EC50 [6] | EC50 (agonism of the Y1-R) [7]
PYY1-36 (ligand) | 42 nM | 12 nM |  |  |  |  | 
HSQGTFTSDLSK(azido)YLEEEAVREFIAWLKNGGPSRHYLNLVTRQRY-NH2 [GEP44] |  |  | 0.33 nM | 24 nM | 10 nM | 300000 nM | 83 nM
HGEGTFTSDLSKQMEEEAVRLFIEWLKNGGPSSTRQRY (C-terminal amidation; K12-azido modification) [EP38] |  |  | 0.08 nM |  | > 300 nM |  | 
HSQGTFTSDLSK(azido)QINEEEAVRLFIEWLKNGGPSRHYLNLVTRQRY-NH2 [EP44] |  |  |  | > 100 nM |  |  | 
